Data on one molecule can be found in paper PMC8268162, “A Master Regulator BrpR Coordinates the Expression of Multiple Loci for Robust Biofilm and Rugose Colony Development in Vibrio vulnificus”.

The target in this series is T1, BrpR-His6.
T1 chain: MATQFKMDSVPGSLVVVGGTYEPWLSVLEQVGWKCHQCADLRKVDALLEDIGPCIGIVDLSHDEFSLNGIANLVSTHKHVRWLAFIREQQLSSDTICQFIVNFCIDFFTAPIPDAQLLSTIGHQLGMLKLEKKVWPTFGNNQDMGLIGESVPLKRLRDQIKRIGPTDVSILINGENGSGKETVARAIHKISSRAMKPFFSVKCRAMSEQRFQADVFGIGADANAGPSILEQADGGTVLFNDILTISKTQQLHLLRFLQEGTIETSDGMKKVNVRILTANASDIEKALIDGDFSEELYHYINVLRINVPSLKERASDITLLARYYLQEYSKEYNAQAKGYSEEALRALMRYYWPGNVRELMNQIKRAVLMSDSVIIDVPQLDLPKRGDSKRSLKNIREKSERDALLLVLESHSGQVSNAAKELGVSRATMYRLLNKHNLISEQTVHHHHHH
In words: EMSA; 50 uM c-di-GMP; 40 mM Tris-Cl pH 7.9, 100 mM KCl, 10 mM MgCl2, 1 mM DTT, 0.1 mM EDTA, 0.1 ug/ul BSA, 0.1 ug poly(dI-dC) in 20 ul, 25 min at 30 C; EMSA DNA 5 nM, footprinting DNA 40 nM. The following applies: protein: recombinant; tags: C-terminal His6; label: 6-FAM on reverse strand; blunt.

B1: BRPBwt (dsDNA)
DNA 1: GTTTGCAATGTCTCATTGGTGCGACGAATGCTTTGGCG
DNA 2: CGCCAAAGCATTCGTCGCACCAATGAGACATTGCAAAC
With B1, the binding result was “binds”.
